According to the DeepSol protein solubility set:

Assay: soluble on expression in E. coli; label from the status in PepcDB or PDB records
In the case of “DIINFFKQITDHEPYDYQIRAWEKINKIMELGGRVVIEIPTAGGKTEAAIIPYLYQFISNDWKVPRLIYVLPTRSLVEKQVERIRNYIKKILEIKGYSKDKVEELAKKIVQVEYGLEETHAFLGFVVLTTWDTFLYGLAAHRTVGDRFTFPCGAIAQSLVVFDEIQMYQDESLYMPRLIGLVVKRLVEANVPLVFMTATLPTELKKILGIHDEEPITVNPEDT”, the “soluble on expression in E. coli” value is reported as “not soluble”.
For “DIPFYEQVKASAGHGFLCECKNVTYISLPKALFKYFNVKDLLAITAHGDSMEPVLNDDALLVIDSSKKQIRDGSMYVIRQGDLIRVKLISLDNNGLKLKSYNQSYHDEIYEDYQDVEILGKVIWYSSLCL”, the “soluble on expression in E. coli” value was “not soluble”.
For “DLAKEGKLHSIVDSLFYSRLYKKEKRVYGDTDYDRFDFFTNRFLQSFNKAAFDDFFSSRVEYPNQIKILFQMFFTKMEKLKTD”, the “soluble on expression in E. coli” value was “not soluble”.
For “DLFFGWGRKKSGLKAMNLAKKYKAKFILLEDGFIRSLNLGVENSPSFSMVKDDIGIYYDATMPSKLENLLNTCEFKDEEIKQAKKAIELIKKYKISKYNNNLDIPDNYFQKDEKRVLIITQTANDASLEFGLAKDFKTLDMIKDAIKENPKSTIYIKIHPDVLSGKKQSDLDLNSLPKECILITENFNPIALLEFFDKVYTKTSGMGFEALMQECECICYGMPFYAGWGLTKDKLECKRRMQKRSLEEVFYAAYILYAEY”, the “soluble on expression in E. coli” value was “not soluble”.
For “DLIVTAGGKNVSPGPMEDIIRAHPLVSQAMVVGDGKPFVGLLVTLDPDMLKRWKLNHNIAESRTVSEIATDPALRAEIQDAVNNANATVSHSEAIKRFYILDRDLTEEADELTPTLKVKRNVVVRRYADAIDHIYNR”, the “soluble on expression in E. coli” value was “not soluble”.
For “DPAGLLDLRQGMFAQLVAQNVLLIDGPLSWYSDPGLAGVSLTGGLSYKEDTKELVVAKAGVYYVFFQMELRRVVAGEGSGSVSLALHLMPLRSAAGAAALALTVDLPPASSEARNSAFGFQGRLLHLSAGQRLGVHLHTEARARHAWQLTQGATVLGLFRVTPEIPA”, the “soluble on expression in E. coli” value was “soluble”.
For “DPGERLYDLNMPAYVKFNYMAEREDELSLIKGTKVIVMEKCSDGWWRGSYNGQVGWFPSNYVTEEGDSPLGDHVG”, the “soluble on expression in E. coli” value was “soluble”.
In the case of “DPSVTHVLHQLCDILANNYAFSERIPTLLQHLPNLDYSTVISEEDIAAKLNYELQSLTEDPRLVLKSKTDTLVMPGDSIQAENIPEDEAMLQALVNTVFKVSILPGNIGYLRFDQFADVSVIAKLAPFIVNTVWEPITITENLIIDLRYNVGGSSTAVPLLLSYFLDPETKIHLFTLHNRQQNSTDEVYSHPKVLGKPYGSKKGVYVLTSHQTATAAEEFAYLMQSLSRATIIGEITSGNLMHSKVFPFGDTQLSVTVPIINFIDSNGDYWLGGGVVPDAIVLADEALDKAKEIIAFHPPLA”, the “soluble on expression in E. coli” value is reported as “soluble”.
For “DQESCKGRCTEGFNVDKKCQCDELCSYYQSCCTDYTAECKPQVTRGDVFTM”, the “soluble on expression in E. coli” value was “soluble”.
In the case of “DQQYVKNFLLLVKSDNPEEQAAATETSIPRKLREMRMASTIDSTLSKDDILTRYLNLVHLGNGAFGVEAAARTYFGKGAPELSLAQSAMFAGIVQSSSYLDPYTNPDAVMDRRNVVLDTMAANGYATPEDVAAAKAEPLGVLEQPQGLPNGCITAGDNGFFCDYVLKYLSEKGLSTDQLTQGSYTINTTLDPDVQQAAHAAAAGQVNSHTFGVANVMNIVEPGKDSRKILAMTSSRDYGLDLDAGQTVLPQPTSLVGNGAGSVFKIFTAAVALQQGYGLDTQLQVPPRYEAKGMGDGGAEGCGAGTYCVENSGSYAPQMSLRDALAFSPNTPFVQMIEKVGVKDVVDTSVKLGLRSYANPGTFNKDNSIADYVKEHNLGSYTLGPTAVNPLELSNVAASLASDGMWCEPSPITTVTDAKGNEVFLDRPACEQAIDPEIAQALSAGLSQDTIKGTGAQAAKSLGFSAPTAAKTGTTESHSS”, the “soluble on expression in E. coli” value is reported as “not soluble”.
For “DQVSRFRLLGGNQVRPLAGGDEAYPAMMQAIREARVSIAMQSYIFDCDPIGREMAQALVEAQQRGVQVRVLIDAIGSKYSRPPIVRTLVRGGVRTARFMTNPLGVMRMPYANLRSHRKILVVDGHVGFTGGMNIRAAFVTALAGKAANGDTHFRLEGPVVAQLMAVFAHDWNFTTRESLEGPTWFPPAPERAPGSVPMRCVASGPDSALGSTHKM”, the “soluble on expression in E. coli” value was “not soluble”.
With “DRGRMANIFGANNFYYAKSQAMLYTVSQNADFITAGLVDPVFLPLGNQQRAATHLNEPKSQKILFIVAESWGLPANPELQNATFAKLLAQKDRFSVWESGSFPFIGATVEGEMRELCAYGGLRGFALRRAPDEKFARCLPNRLKQEGYATFAMHGAGSSLYDRFSWYPRAGFQEIKTAENLIGKKTCAIFGGVCDSELFGEVSAFFKKHDKGLFYWMTLTSHADYPESDIFNHRLKCTEYGLPAETDLCRNFSLHTQFFDQLADLIQRPEMKGTEVIIVGDHPPPVGNLNETFRYLKQGHVAWLNFKIK” the “soluble on expression in E. coli” value was “not soluble”.
For “DSKKIVGVFYKANEYATKNPNFLGCVENALGIRDWLESQGHQYIVTDDKEGPDCELEKHIPDLHVLISTPFHPAYVTAERIKKAKNLKLLLTAGIGSDHIDLQAAAAAGLTVAEVTGSNVVSVAEDELMRILILMRNFVPGYNQVVKGEWNVAGIAYRAYDLEGKTIGTVGAGRIGKLLLQRLKPFGCNLLYHDRLQMAPELEKETGAKFVEDLNEMLPKCDVIVINMPLTEKTRGMFNKELIGKLKKGVLIVNNARGAIMERQAVVDAVESGHIGGYSGDVWDPQPAPKDHPWRYMPNQAMTPHTSGTTIDAQLRYAAGTKDMLERYFKGEDFPTENYIVKDGELAPQYR”, the “soluble on expression in E. coli” value was “soluble”.
For “DSLGWSNVDVLDRICEAYGFSQKIQLANHFDIASSSLSNRYTRGAISYDFAAHCALETGANLQWLLTGEGEAFVNNRESSDAKRIEGFTLSEEILKSDKQLSVDAQFFTKPLTDGMAIRSEGKIYFVDKQASLSDGLWLVDIKGAISIRELTKLPGRKLHVAGGKVPFECGIDDIKTLGRVVGVYSEVN”, the “soluble on expression in E. coli” value was “soluble”.
In the case of “DVQLQESGTVLARPGASVKMSCKASGYSFTSYWMHWIKQRPGQGLEWIGGVYPGDSHTSYNQKFKGKAKLTAVTSASTAYMELSSLTNEDSAVYYCTRSGFDYGNEDWGQGTTLTVSSAKTTPPSVYPLAPGSAAQTNSMVTLGCLVKGYFPEPVTVTWNSGSLSSGVHTFPAVLQSDLYTLSSSVTVPSSPRPSETVTCNVAHPASSTKVDKKI”, the “soluble on expression in E. coli” value is reported as “soluble”.
With “DVQLVESGGGLVQPGGSRKLSCAASGFTFSSFGMHWVRQAPEKGLEWVAYISSGSSTLHYADTVKGRFTISRDNPKNTLFLQMTSLRSEDTGMYYCARWGNYPYYAMDYWGQGTSVTVSSAKTTPPSVYPLAPGSAAQTNSMVTLGCLVKGYFPEPVTVTWNSGSLSSGVHTFPAVLQSDLYTLSSSVTVPSSPRPSETVTCNVAHPASSTKVDKKIVPRDC” the “soluble on expression in E. coli” value was “soluble”.
With “DYKDDDDKDLKCTTNNMRVWDCTWPAPLGVSPGTVKDICIKDRFHSCHPLETTNVKIPALSPGDHEVTINYLNGFQSKFTLNEKDVSLIPETPEILDLSADFFTSSLLLKWNDRGSALPHPSNATWEIKVLQNPRTEPVALVLLNTMLSGKDTVQHWNWTSDLPLQCATHSVSIRWHIDSPHFSGYKEWSDWSPLKNISWIRNTETNVFPQDKVVLAGSNMTICCMSPTKVLSGQIGNTLRPLIHLYGQTVAIHILNIPVSENSGTNIIFITDDDVYGTVVFAGYPPDVPQKLSCETHDLKEIICSWNPGRITGLVGPRNTEYTLFESISGKSAVFHRIEGLTNETYRLGVQMHPGQEIHNFTLTGRNPLGQAQSAVVINVTERVAPHDPTSLKVKDINSTVVTFSWYLPGNFTKINLLCQIEICKANSKKEVRNATIRGAEDSTYHVAVDKLNPYTAYTFRVRCSSKTFWKWSRWSDEKRHLTTEAT” the “soluble on expression in E. coli” value was “soluble”.
With “DYLRQVFPHYKVQKITLNAGFTCPNRDGLKGWGGCTYCNNQTFSPAFAMKDRSVSEQLRDGIAFFARKYPHMKYLAYFQAYTNTYGEQAEIIRKYEEALNYYDVVGIIIGTRPDCMPDSLLSYLKDLSERVFVLVEYGVESTLDATLRRVNRGHLWSDSMAAIERTAKTGLPIGVHLILGLPGESREDILRHADKISALPVTTLKLHQLQIIRGTAMAKEYAESPSD” the “soluble on expression in E. coli” value was “not soluble”.
For “EDFVVSGALNLSLIRERTGFQAKATEDYQTLAGLVMSLLDRLPSTGDSLSWQGWNLQVVGVEERRVTRVLLQKQP”, the “soluble on expression in E. coli” value was “not soluble”.
With “EDICFLLADGRVYVAANQSFEPELLLSSSADSRLYVTDRGLFICAENRIYFIEKGRKTTQFPIADVLGVGAMNESNTAYIALGEEGLASLLLAEGSTAEAMPVAFDGPGDNDFYEMRFSHGRLYAASGLWGTNLMGHAGMVKLYDGNRWTNFDKKTVQEQLGGGFSFNDAIDIAVSNGDPDHFFVGTWGNGLFEFKDGKAIARYSGNETAIAECNPGDARVKAIAFDNKGNLWGTLGAVGKNIFMYDPQSSTWHSFSYPDVANLASFGNMIILPNGDKWVNILHRSGGSTRKGVLIFNDRGTPETTSDDSHLYVEQFVNRLGAAIGHKTIYAMAVDHNGSVWMGSDIGIFGVYNAAGVLSSTSTPIAVRPVGGEEPNLYYVLDKVTVTDIVVDKLNHKWVATQGTGLYLLSEDCSKILAQFTVENSPLLSNNILSLALNDDNGLLYIGTADGLMTFQTGTGSGSASELDGVYVYPNPLRPEYPDGVTIAGLQAGCSVKITDTTGRLLYQTESVTTEVKWNARGADGNRVASGVYAVAVYDPVSKKSKLIRFAVIR” the “soluble on expression in E. coli” value was “not soluble”.
For “EDLIFGKRISLDLGYREKALFYSLEEHVALIHPEDHDNFIHCWQLFISSANLKDNFSCTYRLKTSDGQWFWYKDLGKIVAVDANNHPVRVTGSYTNITESRANEERAQYYGDAFQQTQ”, the “soluble on expression in E. coli” value was “not soluble”.
For “EELEERLVEWIVVQCGPDVGRPDRGRLGFQVWLKNGVILSKLVNSLYPEGSKPVKVPENPPSMVFKQMEQVAQFLKAAEDYGVIKTDMFQTVDLYEGKDMAAVQRTLMALGSLAVTKNDGNYRGDPNWFMK”, the “soluble on expression in E. coli” value was “soluble”.
In the case of “EERFAELFAAVDWISLGGGIHFTAENYPLETFAERLKHFSKTYDVTIFLEPGEAAITKSTTLEVSVLDTLYNEKNLAIVDSSIEAHMLDLLIYRENAKLEQNQGPYEIMVCGKSCLAGDIFGTFRFPEPLKIGDRLSFQDTAGYTMVKKNWFNGVTMPAIVIKECNGALTIQRQFSYNDYQKSLS”, the “soluble on expression in E. coli” value is reported as “not soluble”.
In the case of “EFNDKYPDINIDMELDNRFVDIVNERFDLAIRTGMLPDSSLIARKLVDANWVVCASPKYLAKHGIPKQPIELTKHNCLVYSYQETGAREWAFKAGDKMYQVTVDGNLCTNNSSALRN”, the “soluble on expression in E. coli” value is reported as “not soluble”.
In the case of “EFPEITEEMEKEIKNVFRNGNQDEVLSEAFRLTITRKDIQTLNHLNWLNDEIINFYMNMLMERSKEKGLPSVHAFNTFFFTKLKTAGYQAVKRWTKKVDVFSVDILLVPIHLGVHWCLAVVDFRKKNITYYDSMGGINNEACRILLQYLKQESIDKKRKEFDTNGWQLFSKKSQEIPQQMNGSDCGMFACKYADCITKDRPINFTQQHMPYFRKRMVWEILHRKLL”, the “soluble on expression in E. coli” value is reported as “soluble”.
For “EGGEPCACPHALHRVCGSDGETYSNPCTLNCAKFNGKPELVKVHDGPCEPDEDEDVCQECDGDEYKPVCGSDDITYDNNCRLECASISSSPGVELKHEGPCRT”, the “soluble on expression in E. coli” value was “soluble”.
With “EGPLHWESTLTYTSYRDRWKERDPKVILAPYVKENDPVSAIYTLIPDGIKQAGEDTPAMPDLLPGQRKYKDVNGLDEEGNLTGKPDGKIDQADVVYLGTRAPKFTMGFSNDFRYKGFDLNIYLYASVGGYSYPYTQVEHGVYGGNGIQRLKDNNNFLADIKNRWTSDNMSSAMPSGEVNSYDSYGAPNWEKNTYLRLKSVTLGYDLSRLFKADKLKVRFYFSGQNLLTFTGYKGLDPEVENDRASYPQQKTFSFGLDVKF” the “soluble on expression in E. coli” value was “not soluble”.
